These results are taken from US20250215071A1, “Novel Mcl-1 inhibitor and combination of Mcl-1 and a BH3 mimetic, such as a Bcl-2 inhibitor” (NETRIS PHARMA, priority 2022, published 2025).

The test system of this assay is Mcl-1. The assay can be described thus: Mcl-1 immunohistochemistry on paired biopsies of phase I trial patients (NCT02977195). It is filed as in vivo, human. As to the method: FIG. 7. Netrin-1 interference triggers Mcl-1 degradation in vitro and in vivo. (A,B): Netrin-1 silencing triggers Mcl-1 degradation. Breast cancer MCF7 cells were transfected with scramble (siCTRL) or netrin-1 (siNet) targeting siRNAs. 48 hours after transfection, cells were lysed by scraping and sonication in SDS-containing buffer. Protein levels of Mcl-1, netrin-1, and UNC5B, as well as B-actin and Ku80, used as housekeeping genes, were evaluated by western blot (A). Relative Mcl-1 protein levels, normalized to β-actin or Ku80, are shown in (B) (n=2, *** p<0.001, **** p<0.0001, ordinary two-way ANOVA with Sidak's multiple comparisons test). Activation of endogenous UNC5B upon netrin-1 silencing decreased Mcl-1 protein levels. Values are given as means±SEM. (C,D): Netrin-1 interference degrades Mcl-1 in a syngeneic breast cancer model. Stable EMT6 cells, constitutively over-expressing human Mcl-1, were engrafted in BALB/c mice. Once tumors reached a volume of 100 mm^3, mice were treated with Iso-mAb or NP137 antibodies and sacrificed 8 hours after treatment. Protein levels of Mcl-1 were then evaluated by western blot (C). […] Mcl-1 protein was quantified in paraffin-embedded slices on paired C1D1 and C3D1 biopsies and compared with clinical benefit (stable disease, SD, or progression disease, PD, at 6 weeks). Mcl-1 intensity was assessed in all, PD or SD biopsies (E) (n=6, Wilcoxon test). […]
The NP137 antibody is currently being assessed in several phase I and II clinical trials, in patients with advanced solid tumours. […] Mcl-1 presence was thus analysed by immunohistochemistry.
For histological examination of tumours engrafted in nude mice, ex vivo breast cancer slices, and from human clinical trial, tumours were fixed in 10% buffered formalin and embedded in paraffin. […] Quantification of caspase-3- and Mcl-1-positive cells was performed with HALO software and adapted algorithms cytonuclear v2.0.8 6 (Indica Labs, Albuquerque, NM, USA). MCL1 intensity, has been calculated in percentage over the surface of tumour cells. […]

B1: NP137: humanized anti-netrin-1 monoclonal antibody, VH SEQ ID NO: 22, VL SEQ ID NO: 16, human IgG1 (antibody, V domains shown)
VH: QVQLQQSGPGLVKPSQTLSLTCAISGYTFTSYNMHWVRQATGQGLEWMGAIYPGNGDTSYNQKFKGRLTISKDTSKNQVVLTMTNMDPVDTATYYCARGGTGFAYWGQG
VL: DIQMTQSPSSLSASVGDRVTITCKASQSVSNDVAWYQQKPGQAPRLLIYYASNRYTGIPPRFSGSGYGTDFTLTINNIESEDAAYYFCQQDYSSPWTFGQG
modifications: human IgG1 constant region; humanized variant; MISC_FEATURE - CDR according to IGMT
For B1, the “patient tumours with reduced Mcl-1 levels” value (all twelve patients, 14 mg/kg once every two weeks, C3D1 vs C1D1 biopsies) is “nine out of the twelve”. The “patients with Mcl-1 decrease” value was “three of the six” (six patients with progression disease (PD) at 6 weeks) and “six patients with SD showed Mcl-1 decrease” (six patients with stable disease (SD) at 6 weeks).
